Assay results: patent US20210163606A1 (ATYR PHARMA, published 2021)

Tests used:
[1] = biological target: T1, Cynomolgus NRP2 (aa23-854) with C-terminal Fc-tag (cynomolgus monkey); assay: SPR (ProteOn XPR36), antibody captured on anti-human Fab-kappa, cyno NRP2-Fc as analyte, bivalent analyte fit
T1 construct: range 23-854; sensorgrams fitted to a bivalent analyte model; also called Cynomolgus NRP2 antigen protein
Method: Anti-NRP2 antibody binding and affinity measurements. […] SPR experiments were conducted on a Bio-Rad ProteOn XPR36 Protein Interaction Array instrument. Biotinylated anti-human antibody (ThermoFisher Cat #7103302100) was immobilized on ProteOn NLC sensor chips. Anti-NRP2 antibodies were subsequently flowed over and captured by the anti-human antibody. Cynomolgus NRP2 antigen protein was flowed over the captured antibody at varying concentrations (150, 50, 16.67, 5.56, 1.85 nM). The sensor chip surface was regenerated between each analyte run to remove anti-NRP2 antibodies and NRP2 protein. Data was double referenced against a surface with no anti-NRP2 antibody captured (immobilized anti-human antibody only) and a buffer only blank. Affinity constants were derived by globally fitting sensograms to a bivalent analyte interaction model in the ProteOn manager software. For each anti-NRP2 antibody, data from the multiple NRP2 concentrations was fit as a single data set with dissociation rate constant (kd), association rate constant (kₐ) and Rₘₐₓ values as global parameters. The reported binding affinity is the equilibrium dissociation constant (KD) calculated from kd/kₐ. [0681] Running buffer: 50 mM HEPES, 300 mM NaCl, 5 mM CaCl₂, 0.005% Tween-20, pH 7.4 [0682] Immobilized antibody: CaptureSelect Human Fab-kappa Kinetics Biotin Conjugate, Thermo Fisher Cat #7103302100 [0683] Antigen: Cynomolgus NRP2 (aa23-854) with C-terminal Fc-tag [0684] Regeneration buffer: 10 mM glycine pH 2.0

[2] = biological target: T2, mouse NRP2 I407V on transfected Expi293 cells (Mouse, UniProt O35375 21-931); assay: flow cytometry, aNRP2-10v10 at 10 nM on transfected Expi293 cells gated on live, single, NRP2 expressing cells [panel 11B]
T2 construct: whole, on cells
T2 sequence (looked up): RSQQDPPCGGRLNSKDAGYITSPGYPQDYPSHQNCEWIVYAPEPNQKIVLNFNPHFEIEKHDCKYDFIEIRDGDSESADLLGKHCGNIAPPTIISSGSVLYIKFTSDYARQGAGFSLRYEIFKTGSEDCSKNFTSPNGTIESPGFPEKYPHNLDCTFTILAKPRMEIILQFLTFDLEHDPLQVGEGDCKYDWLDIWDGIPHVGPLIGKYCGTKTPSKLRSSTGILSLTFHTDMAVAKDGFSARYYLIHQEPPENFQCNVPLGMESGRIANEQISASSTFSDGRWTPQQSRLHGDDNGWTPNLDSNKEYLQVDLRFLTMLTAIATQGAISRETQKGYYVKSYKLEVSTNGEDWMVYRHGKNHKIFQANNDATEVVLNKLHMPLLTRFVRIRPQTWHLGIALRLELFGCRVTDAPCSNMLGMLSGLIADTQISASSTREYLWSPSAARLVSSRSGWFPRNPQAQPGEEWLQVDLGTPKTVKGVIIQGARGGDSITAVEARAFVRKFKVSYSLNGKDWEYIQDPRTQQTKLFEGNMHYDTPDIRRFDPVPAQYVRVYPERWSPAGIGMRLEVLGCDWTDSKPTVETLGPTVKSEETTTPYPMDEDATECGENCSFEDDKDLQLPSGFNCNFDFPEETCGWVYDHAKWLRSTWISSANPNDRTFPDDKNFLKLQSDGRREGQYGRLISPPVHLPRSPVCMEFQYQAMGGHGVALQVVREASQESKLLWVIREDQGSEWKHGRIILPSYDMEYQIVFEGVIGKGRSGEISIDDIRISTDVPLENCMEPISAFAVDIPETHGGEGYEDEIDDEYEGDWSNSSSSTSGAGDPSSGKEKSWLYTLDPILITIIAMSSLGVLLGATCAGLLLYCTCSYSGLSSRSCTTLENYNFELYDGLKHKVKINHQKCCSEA
Method: (§1) FIGS. 11A-11B show the measurement of antibody binding to Expi293 cells over-expressing NRP2. […] Gating for NRP2 over-expressing cells is shown.
(§2) Human NRP2a (version 2; see Table N1) and mouse NRP2v2 cDNAs were obtained from Origene. […] Human and mouse NRP2, expression vectors, along with expression vectors encoding all 6 mutants were transfected into Expi293 cells at 1 million cells/mL, by standard techniques. Approximately 40 hours post transfection cells were co-stained with aNRP2-10v10, and a species agnostic anti-NRP2 a1 specific binding antibody.

[3] = biological target: T3, mouse NRP2 M400A on transfected Expi293 cells (Mouse, UniProt O35375 21-931); assay: as above
T3 construct: whole, on cells
T3 sequence (looked up): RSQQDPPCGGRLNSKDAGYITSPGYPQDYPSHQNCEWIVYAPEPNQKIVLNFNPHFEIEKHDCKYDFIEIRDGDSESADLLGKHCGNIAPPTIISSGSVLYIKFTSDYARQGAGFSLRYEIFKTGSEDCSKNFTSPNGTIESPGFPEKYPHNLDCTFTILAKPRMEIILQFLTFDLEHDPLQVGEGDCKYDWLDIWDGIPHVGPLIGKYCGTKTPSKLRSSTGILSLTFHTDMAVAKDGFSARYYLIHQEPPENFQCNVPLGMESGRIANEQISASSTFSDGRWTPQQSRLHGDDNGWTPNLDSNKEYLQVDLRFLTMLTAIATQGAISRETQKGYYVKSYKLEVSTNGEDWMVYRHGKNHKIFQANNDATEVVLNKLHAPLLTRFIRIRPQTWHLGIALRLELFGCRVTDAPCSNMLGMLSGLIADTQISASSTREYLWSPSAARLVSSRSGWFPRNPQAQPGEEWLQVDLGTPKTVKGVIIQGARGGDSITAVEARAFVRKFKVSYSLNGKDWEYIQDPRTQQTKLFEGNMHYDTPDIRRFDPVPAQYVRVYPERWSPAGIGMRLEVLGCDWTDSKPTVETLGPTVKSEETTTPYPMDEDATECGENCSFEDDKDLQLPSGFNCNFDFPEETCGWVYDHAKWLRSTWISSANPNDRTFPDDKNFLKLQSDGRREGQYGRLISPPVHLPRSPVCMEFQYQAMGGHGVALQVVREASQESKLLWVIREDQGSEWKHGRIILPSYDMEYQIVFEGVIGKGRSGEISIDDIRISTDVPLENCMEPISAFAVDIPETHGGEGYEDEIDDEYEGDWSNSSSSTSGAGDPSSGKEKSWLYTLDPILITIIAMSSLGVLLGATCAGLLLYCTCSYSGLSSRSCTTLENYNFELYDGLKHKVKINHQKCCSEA
Method: as §1, §2

Kd [1]: 32 pM
binding result [2]: no binding (tested: 10 nM)
binding result [3]: no binding (tested: 10 nM)
B1: aNRP2-10v10 (antibody, V domains shown)
VH: EVQLVQSGAEVKKPGATVKISCKVSGFNIKDYYVHWVQQAPGKGLEWMGRIDVEDDETKYAPKFQGRVTITADTSTDTAYMELSSLRSEDTAVYYCATPIYGAREAWFAYWGQGTLVTVSS
VL: DIQMTQSPSSLSASVGDRVTITCTASSSVSSSYLHWYQQKPGKAPKLLIYRTSNLASGVPSRFSGSGSGTDFTLTISSLQPEDFATYYCHQYYRSPPTFGGGTKVEIK
